In the experiment the target is Mtb ClpP1P2 protease complex (one heptameric ClpP1 ring and one heptameric ClpP2 ring) (Mycobacterium tuberculosis) (UniProt P0A527).

pKd: −log10 of the molar value.

The substance Z-Leu-Leu (peptide) showed a negative logarithm of the Kd (pKd) of 2.66.
For the substance Z-Leu-leucinal (peptide), the negative-log Kd (pKd) is 3.62.

The term pKd denotes −log10 of the Kd, conventionally taken in molar units. High values mean a low Kd, low ones a high Kd.

(Values after US20140243255A1.)
